Results taken from EP4086284A1 (Emergence Therapeutics AG, dated 2022).

Molecular target: T1, Nectin-4 extracellular domain Fc fusion recombinant protein (Nec4-VCC) (human, UniProt Q96NY8 32-349)
T1 construct: extracellular domain; also called Nectin-4-VCC-Fc; not shown: Fc part
T1 sequence (looked up): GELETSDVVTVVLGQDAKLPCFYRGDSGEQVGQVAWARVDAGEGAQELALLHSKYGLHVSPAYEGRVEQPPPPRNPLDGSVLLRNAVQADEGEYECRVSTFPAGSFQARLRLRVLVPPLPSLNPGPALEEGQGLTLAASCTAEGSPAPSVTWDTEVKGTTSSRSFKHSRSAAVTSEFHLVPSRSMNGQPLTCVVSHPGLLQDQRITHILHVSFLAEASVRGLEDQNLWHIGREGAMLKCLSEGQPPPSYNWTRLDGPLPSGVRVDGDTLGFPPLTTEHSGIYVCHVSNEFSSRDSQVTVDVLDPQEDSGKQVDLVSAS
Experiment: statement in the legend of the competition ELISA on Nec4-VCC

B1: Enfortumab (HA22) (antibody, V domains shown)
VH: EVQLVESGGGLVQPGGSLRLSCAASGFTFSSYNMNWVRQAPGKGLEWVSYISSSSSTIYYADSVKGRFTISRDNAKNSLSLQMNSLRDEDTAVYYCARAYYYGMDVWGQGTTVTVSS
VL: DIQMTQSPSSVSASVGDRVTITCRASQGISGWLAWYQQKPGKAPKFLIYAASTLQSGVPSRFSGSGSGTDFTLTISSLQPEDFATYYCQQANSFPPTFGGGTKVEIK
notes: also called HA22 mAb
  binding result: binds
